Experimental data taken from patent publication US20150266962A1.
Changes are numbered by the printed parent chain. Values belong to the binder of their own block, whether it stands above or below them.

What was measured:
[1] = biological target: human IL-13Rα2 on the surface of human tumour cell lines (human) (UniProt Q14627); experiment: FACS, 10 µg/mL, A375 (melanoma) cells
[2] = biological target: human IL-13Rα2 on the surface of human tumour cell lines (human) (UniProt Q14627); experiment: FACS, 10 µg/mL, Hs766T (pancreatic) cells
[3] = biological target: human IL-13Rα2 on the surface of human tumour cell lines (human) (UniProt Q14627); experiment: FACS, 10 µg/mL, U87MG (glioblastoma) cells
[4] = biological target: human IL-13Rα2 on the surface of human tumour cell lines (human) (UniProt Q14627); experiment: FACS, 10 µg/mL, PC3MM2 (prostate) cells
[5] = biological target: human IL-13Rα2 on the surface of human tumour cell lines (human) (UniProt Q14627); experiment: FACS, 10 µg/mL, SW626 (ovarian) cells
[6] = biological target: human IL-13Rα2 on the surface of human tumour cell lines (human) (UniProt Q14627); experiment: FACS, 10 µg/mL, H460 (lung, cisplatin resistant) cells
[7] = biological target: human IL-13Rα2 on the surface of human tumour cell lines (human) (UniProt Q14627); experiment: cell-based or functional assay
[8] = biological target: human IL-13Rα2 on the surface of human tumour cell lines (human) (UniProt Q14627); experiment: FACS, 10 µg/mL, A498 (renal) cells
[9] = biological target: human IL-13Rα2 on the surface of human tumour cell lines (human) (UniProt Q14627); experiment: cell-based ELISA on A375 cells (given as ED50)
[10] = biological target: human IL-13Rα2 on the surface of human tumour cell lines (human) (UniProt Q14627); experiment: competition ELISA on A375 cells, competitor biotinylated ch07
[11] = biological target: human IL-13Rα2 on the surface of human tumour cell lines (human) (UniProt Q14627); experiment: FACS on A375 cells

Sequence of human IL-13Rα2 on the surface of human tumour cell lines (human) (Q14627 27-380): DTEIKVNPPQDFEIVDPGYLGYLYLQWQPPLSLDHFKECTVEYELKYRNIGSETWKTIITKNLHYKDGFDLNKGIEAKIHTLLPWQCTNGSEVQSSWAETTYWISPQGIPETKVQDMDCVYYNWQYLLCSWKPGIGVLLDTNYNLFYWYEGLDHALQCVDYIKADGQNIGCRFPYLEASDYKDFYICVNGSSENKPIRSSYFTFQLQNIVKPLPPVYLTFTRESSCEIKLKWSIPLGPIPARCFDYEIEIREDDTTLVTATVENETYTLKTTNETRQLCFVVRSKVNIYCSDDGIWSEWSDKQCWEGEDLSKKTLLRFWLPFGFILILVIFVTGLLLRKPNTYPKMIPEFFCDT

B2: hu07 heavy chain v1.5 paired with chimeric light chain (antibody, V domains shown)
VH: EVQLVESGGGLVQPGGSLRLSCAASGFSLTKYGVHWVRQAPGKGLEWVGVKWAGGSTDYNSALMSRFTISKDNAKNSLYLQMNSLRAEDTAVYYCARDHRDAMDYWGQGTLVTVSS
VL: QVVLTQSPAIMSASPGERVTMTCTASLSVSSTYLHWYHQKPGSSPKLWIYSTSNLASGVPARFSGSGSGTSYSLTISSMEAEDAATYYCHQYHRSPLTFGSGTKLELK
EC50 [9]: 0.87 nM | IC50 [10]: 7.67 nM

B3: chimeric antibody ch07 (antibody, human IgG1, V domains shown)
VH: QVQLKESGPGLVAPSQSLSINCTVSGFSLTKYGVHWIRQSPGKGLEWLGVKWAGGSTDYNSALMSRLTISKDNNKSQVFLKMNSLQSDDSAMYYCARDHRDAMDYWGQGTSVTVSS
VL: B2 VL
EC50 [9]: 0.85 nM | IC50 [10]: 17.3 nM

B5: humanized antibody hu08 v1.1 HC/v1.1 LC (antibody, IgG1, V domains shown)
VH: EVQLVESGGGLVQPGGSLRLSCAASGFTFSRNGMSWVRQTPDKRLEWVATVSSGGSYIYYADSVKGRFTISRDNAKNSLYLQMSSLRAEDTAVYYCARQGTTALATRFFDVWGQGTLVTVSS
VL: DIQMTQSPSSLSASVGDRVTITCKASQDVGTAVAWYQQIPGKAPKLLIYSASYRSTGVPDRFSGSGSGTDFSFIISSLQPEDFATYYCQHHYSAPWTFGGGTKVEIK
EC50 [11]: 5.16 nM

B7: murine anti-IL-13Rα2 antibody mu08 (antibody, mouse IgG1, V domains shown)
VH: EVQLVESGGDLVRPGGSLQLSCAASGFTFSRNGMSWVRQTPDRRLEWVATVSSGGSYIYYADSVKGRFTISRDNARNTLYLQMSSLKSEDTAMYYCARQGTTALATRFFDVWGAGTTVTVSS
VL: DIVMTQSHKFISTSVGDRVSITCKASQDVGTAVAWYQQIPGQSPKLLIYSASYRSTGIPDRFTGSGSGTDFSFIISSVQAEDLALYYCQHHYSAPWTFGGGTTLDIK
Mean Fluorescent Intensity [1]: 46000 | Mean Fluorescent Intensity [2]: 14000 | Mean Fluorescent Intensity [3]: 62000 | Mean Fluorescent Intensity [4]: 72000 | Mean Fluorescent Intensity [5]: 8000 | Mean Fluorescent Intensity [6]: 22000 | % internalization, 15 min, A375 [7]: 68% | % internalization, 15 min, H460R [7]: 55.9% | % internalization, 15 min, Hs766T [7]: 64.1% | % internalization, 15 min, PC3MM2 [7]: 81.9% | % internalization, 4 hours, A375 [7]: 61.8% | % internalization, 4 hours, H460R [7]: 47.4% | % internalization, 4 hours, Hs766T [7]: 76.3% | % internalization, 4 hours, PC3MM2 [7]: 41.6% | internalized after a 1 hour incubation with A375 cells at 37° C. [7]: 31% | Mean Fluorescent Intensity [8]: 5000

B9: hu07 heavy chain v1.5 / light chain v1.0 (antibody, IgG1, V domains shown)
VH: B2 VH
VL: DIQMTQSPSSLSASVGDRVTITCTASLSVSSTYLHWYQQKPGKAPKLLIYSTSNLASGVPSRFSGSGSGTDFTLTISSLQPEDFATYYCHQYHRSPLTFGGGTKVEIK
EC50 [9]: 1.17 nM | IC50 [10]: 12.3 nM

Second part, the binder after the results:

Mean Fluorescent Intensity [1]: 53000 | Mean Fluorescent Intensity [2]: 13000 | Mean Fluorescent Intensity [3]: 61000 | Mean Fluorescent Intensity [4]: 84000 | Mean Fluorescent Intensity [5]: 9000 | Mean Fluorescent Intensity [6]: 28000 | % internalization, 15 min, A375 [7]: 63.1% | % internalization, 15 min, H460R [7]: 74.4% | % internalization, 15 min, Hs766T [7]: 69.6% | % internalization, 15 min, PC3MM2 [7]: 88.6% | % internalization, 4 hours, A375 [7]: 38.1% | % internalization, 4 hours, H460R [7]: 38.4% | % internalization, 4 hours, Hs766T [7]: 69% | % internalization, 4 hours, PC3MM2 [7]: 50.3% | internalized after a 1 hour incubation with A375 cells at 37° C. [7]: 38% | Mean Fluorescent Intensity [8]: 13000
B1: murine anti-IL-13Rα2 antibody mu07 (antibody, mouse IgG1, V domains shown)
VH: B3 VH
VL: B2 VL

EC50 [11]: 6.52 nM
B4: humanized antibody hu08 v1.0 HC/v1.1 LC (antibody, IgG1, V domains shown)
VH: B5 VH with T40A, D42G, R44G, S84N
VL: B5 VL

EC50 [11]: 4.15 nM
B6: humanized antibody hu08 v1.1 HC/v1.0 LC (antibody, IgG1, V domains shown)
VH: B5 VH
VL: B5 VL with I39K, D60S, S72T, F73L, I74T

EC50 [11]: 5.64 nM
B8: chimeric antibody ch08 (antibody, human IgG1, V domains shown)
VH: B7 VH
VL: B7 VL

EC50 [9]: 1.29 nM | IC50 [10]: 19 nM
B10: hu07 heavy chain v1.5 / light chain v1.1 (antibody, IgG1, V domains shown)
VH: B2 VH
VL: B9 VL with K43S, A44S, D71S
